± gives the standard deviation of the averaged measurements.
The sequences below were run on ATP (assay: switch fluorescence ratio, 500 uM ATP over buffer (Cy3 cluster intensity, sum of 5 cycles each) (fold (ratio)); higher = stronger signal-on switching upon ATP binding; sequences stand for … in TCGTCGGCAGCGTCAGATGTGTATAAGAGACAGTTTTTTTTTTTTTTTTTTTTTTTTT…TC). Conditions: aptamer strand: ATP DNA aptamer (quencher-CACCTGGGGGAGTATTGCGGAGGAAGG + anchor), 100 nM annealed; ATP concentration: 500 uM.
Method in brief: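 Clusters carrying Cy3-labelled switching strands on a modified Illumina MiSeq flow-cell were annealed to 100 nM quencher-labelled ATP aptamer and imaged in selection buffer. They were imaged again after 15 min with 500 uM ATP at 22 °C, over five buffer/ATP cycles with NaOH stripping and re-annealing in between. For each cluster, the fluorescence ratio is the summed Cy3 intensity of the target cycles divided by that of the buffer cycles, averaged per switch-domain sequence. Clusters outside 100-1000 RFU were left out.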
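Note: ATP exposure 15 min at 22 °C before imaging.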

Row | Sequence | switch fluorescence ratio
1 | AAATGGTATC | 1.01 ± 0.028
2 | AAATGGTGGT | 1.02 ± 0.018
3 | AAATGGTTCC | 1.72 ± 1
4 | AAATGTCCGG | 1 ± 0.024
5 | AAATGTGAAT | 1 ± 0.029
6 | AAATGTGGAA | 0.994 ± 0.018
7 | AAATGTGTCT | 1.01 ± 0.04
8 | AAATGTTACA | 1.06 ± 0.021
9 | AAATGTTTAT | 0.9804 ± 0.0017
10 | AAATTAAAAG | 0.984 ± 0.031
11 | AAATTAATGT | 1 ± 0.018
12 | AAATTAGCGG | 0.987 ± 0.032
13 | AAATTAGGCG | 0.975 ± 0.021
14 | AAATTATGGA | 0.969 ± 0.075
15 | AAATTCGTAT | 0.9976 ± 0.0068
16 | AAATTGAGAG | 1.004 ± 0.0021
17 | AAATTGGGCT | 1.03 ± 0.026
18 | AAATTGGTCC | 1.02 ± 0.016
19 | AAATTTATAT | 1.02 ± 0.015
20 | AAATTTCGTT | 0.966 ± 0.016
21 | AAATTTGTTA | 0.985 ± 0.04
22 | AAATTTTCGA | 1.018 ± 0.0088
23 | AAATTTTTTG | 1 ± 0.023
24 | AACAAATTTT | 1.012 ± 0.0097
25 | AACAACCGGT | 0.961 ± 0.031

Row | Sequence | switch fluorescence ratio
26 | AACAACTCCA | 1.015 ± 0.0036
27 | AACAAGTAAT | 1 ± 0.018
28 | AACAATTATT | 1.04 ± 0.048
29 | AACAGGCGGC | 0.9872 ± 0.00069
30 | AACAGGGCGG | 1.01 ± 0.015
31 | AACATATCTT | 0.996 ± 0.014
32 | AACATATGTT | 0.972 ± 0.025
33 | AACATCGTAC | 1.12 ± 0.06
34 | AACATCTAGA | 0.965 ± 0.011
35 | AACATGAGGA | 1 ± 0.02
36 | AACATTATGT | 1 ± 0.04
37 | AACATTGTTT | 1.01 ± 0.016
38 | AACCAAGGTT | 1.05 ± 0.082
39 | AACCAGGGGC | 1.37 ± 0.091
40 | AACCAGTGAT | 1.05 ± 0.017
41 | AACCATTAGG | 0.9956 ± 0.0053
42 | AACCCAATTT | 0.985 ± 0.015
43 | AACCCGGGGT | 0.99 ± 0.045
44 | AACCCTTTCA | 1.06 ± 0.035
45 | AACCGCCCTT | 1.27 ± 0.15
46 | AACCGGGATC | 1.14 ± 0.013
47 | AACCTGGTAT | 1.01 ± 0.035
48 | AACCTTAGTC | 1.1 ± 0.045
49 | AACGAAAAAG | 1.12 ± 0.18
50 | AACGAAAATG | 0.997 ± 0.053

Row | Sequence | switch fluorescence ratio
51 | AACGAAGGTA | 0.9884 ± 0.0011
52 | AACGACTATG | 1.05 ± 0.029
53 | AACGAGGAGT | 1.01 ± 0.0058
54 | AACGAGGGGA | 0.9716 ± 0.0045
55 | AACGAGTGAC | 1.04 ± 0.019
56 | AACGAGTGAG | 1.01 ± 0.023
57 | AACGAGTGGG | 1.03 ± 0.019
58 | AACGCATAGG | 1.176 ± 0.0078
59 | AACGCATATT | 1.85 ± 0.78
60 | AACGCCATGC | 2.68 ± 0.38
61 | AACGCTCGTC | 1.02 ± 0.06
62 | AACGGAAAGG | 1.01 ± 0.017
63 | AACGGGAATT | 1.039 ± 0.0056
64 | AACGGGGAAG | 0.995 ± 0.022
65 | AACGGGGGGT | 0.997 ± 0.033
66 | AACGGGGTAG | 0.983 ± 0.034
67 | AACGGGTTAT | 0.995 ± 0.032
68 | AACGGGTTGG | 0.998 ± 0.047
69 | AACGGTAAAT | 1.01 ± 0.085
70 | AACGGTAGGT | 1.01 ± 0.018
71 | AACGGTCTTT | 0.997 ± 0.014
72 | AACGTATGTG | 0.937 ± 0.025
73 | AACGTGGCGG | 0.988 ± 0.018
74 | AACGTGGGGC | 1.01 ± 0.05
75 | AACGTGTATT | 1.1 ± 0.12

Row | Sequence | switch fluorescence ratio
76 | AACGTTATGC | 1.13 ± 0.069
77 | AACGTTTAAA | 1.04 ± 0.1
78 | AACGTTTTCC | 1.23 ± 0.1
79 | AACTAATTCA | 0.99298 ± 0.00078
80 | AACTACAACG | 1.05 ± 0.018
81 | AACTAGTCAA | 1.015 ± 0.0081
82 | AACTAGTGGC | 0.998 ± 0.049
83 | AACTAGTGGG | 1.02 ± 0.024
84 | AACTCATTCA | 1.02 ± 0.025
85 | AACTGAGAAG | 0.988 ± 0.015
86 | AACTGAGTGC | 1 ± 0.043
87 | AACTGGGGTG | 1.03 ± 0.03
88 | AACTGGTGTC | 1.006 ± 0.003
89 | AACTTACTTT | 1.13 ± 0.021
90 | AACTTCAGCT | 0.995 ± 0.03
91 | AACTTGGCTT | 0.969 ± 0.035
92 | AACTTTTATG | 1 ± 0.026
93 | AACTTTTTAT | 1.04 ± 0.042
94 | AACTTTTTGG | 0.99 ± 0.013
95 | AAGAAAGGGC | 1 ± 0.041
96 | AAGAAAGTGG | 0.993 ± 0.034
97 | AAGAAGACGG | 1.23 ± 0.35
98 | AAGAAGTAGG | 1 ± 0.062
99 | AAGAAGTCCT | 0.983 ± 0.034
100 | AAGAATGCGG | 0.988 ± 0.027

Reference: the supplement of paper PMC10126150
